Data taken from paper doi:10.1101/2024.08.29.607757 (bioRxiv, 2024).

B3: NtcA from Synechococcus elongatus (strain PCC7942) with N-terminal His6 tag (natural protein)
chain: MLANENSLLTMFRELGSGKLPLQIEQFERGKTIFFPGDPAERVYLLVKGAVKLSRVYESGEEITVALLRENSVFGVLSLLTGQRSDRFYHAVAFTPVQLFSVPIEFMQKALIERPELANVMLQGLSSRILQTEMMIETLAHRDMGSRLVSFLLILCRDFGIPSPDGITIDLKLSHQAIAEAIGSTRVTVTRLLGDLRESKLIAIHKKRITVFNPVALSQQFS

Key:
[1] = target: B3; assay: crystal structure
NtcA = target: T1, NtcA (Synechococcus elongatus PCC7942, UniProt P29283 1-222); assay: X-ray crystallography
T1 sequence: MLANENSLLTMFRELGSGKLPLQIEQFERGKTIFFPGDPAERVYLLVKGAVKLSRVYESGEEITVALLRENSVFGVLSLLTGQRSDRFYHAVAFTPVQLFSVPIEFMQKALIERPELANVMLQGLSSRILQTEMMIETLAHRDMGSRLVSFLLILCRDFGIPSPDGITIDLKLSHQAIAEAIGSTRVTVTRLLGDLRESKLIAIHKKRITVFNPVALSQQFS

crystal structure = target: the molecule itself; assay: crystal structure

B1: PipX from Synechococcus elongatus (strain PCC7942) with N-terminal His6 tag (natural protein)
chain: MASENYLNHPTFGLLYQICSFGDSKELFATLYAQRLFFLVAFDARGTRFEPIGRNEARMLVDNRLRQLRRDASLQEYNQLQQVFKQTFL
B1: binds [1].

B2: nicked symmetric glnA half-site NtcA box (NtcA-DNA crystal) (dsDNA)
DNA 1: CATTTTTATGTATC
DNA 2: AGCTGATACATAAAAAT
B2: binds (NtcA).

B3: binds (crystal structure).
